From patent US20030096272A1, “Genes regulated by peroxisome proliferator-activated receptor gamma agonist” (Incyte Genomics, Inc., priority 2001, published 2003) come the findings set out here.

The subject of data set [1] is adipocytes obtained from normal donors. Nature of the data set: microarray differential expression in PPARγ agonist-treated adipocytes, normal donor. Type of data set: cell-based, human. An excerpt:
(§1) Incyte clones represent template sequences derived from the LIFESEQ GOLD assembled human sequence database (Incyte Genomics). In cases where more than one clone was available for a particular template, the 5′-most clone in the template was used on the microarray. The HUMAN GENOME GEM series 1-5 microarrays (Incyte Genomics) contain 45,320 array elements which represent 22,632 annotated clusters and 22,688 unannotated clusters. For the UNIGEM series microarrays (Incyte Genomics), Incyte clones were mapped to non-redundant Unigene clusters (Unigene database (build 46), NCBI; Shuler (1997) J Mol Med 75:694-698), and the 5′ clone with the strongest BLAST alignment (at least 90% identity and 100 bp overlap) was chosen, verified, and used in the construction of the microarray. The UNIGEM V 2.0 microarray (Incyte Genomics) contains 8,502 array elements which represent 8,372 annotated genes and 130 unannotated clusters.
(§2) To construct microarrays, cDNAs were amplified from bacterial cells using primers complementary to vector sequences flanking the cDNA insert. Thirty cycles of PCR increased the initial quantity of cDNAs from 1-2 ng to a final quantity greater than 5 μg. Amplified cDNAs were then purified using SEPHACRYL-400 columns (APB). Purified cDNAs were immobilized on polymer-coated glass slides. Glass microscope slides (Coming, Corning N.Y.) were cleaned by ultrasound in 0.1% SDS and acetone, with extensive distilled water washes between and after treatments. Glass slides were etched in 4% hydrofluoric acid (VWR Scientific Products, West Chester Pa.), washed thoroughly in distilled water, and coated with 0.05% aminopropyl silane (Sigma-Aldrich) in 95% ethanol. Coated slides were cured in a 110° C. oven. cDNAs were applied to the coated glass substrate using a procedure described in U.S. Pat. No. 5,807,522. One microliter of the cDNA at an average concentration of 100 ng/ul was loaded into the open capillary printing element by a high-speed robotic apparatus which then deposited about 5 nl of cDNA per slide.
(§3) Microarrays were UV-crosslinked using a STRATALINKER UV-crosslinker (Stratagene), and then washed at room temperature once in 0.2% SDS and three times in distilled water. Non-specific binding sites were blocked by incubation of microarrays in 0.2% casein in phosphate buffered saline (Tropix, Bedford Mass.) for 30 minutes at 60° C. followed by washes in 0.2% SDS and distilled water as before.
(§4) Primary cultures of preadipocytes were obtained from subcutaneous fat obtained from a person with a body mass index (BMI; kg/m^2) of 23.59 and from a person with a BMI of 32.47. Individuals with a BMI between 18.5 and 24.9 are classified as ‘healthy’ or normal, whereas individuals with a BMI between 30.0 and 39.9 are classified as obese. Preadipocytes were cultured in F-10 medium with 10% fetal bovine serum. Confluent cells were either treated with 1 μM rosiglitazone (BRL49653), 0.2 mM IBMX, and 100 nM human insulin for 3 days; or remained untreated. Thereafter, the cells were cultured in F-10 medium with 3% fetal bovine serum and 100 nM human insulin. Differentiated adipocytes were compared to untreated preadipocytes maintained in culture in the absence of inducing agents. Between 80% and 90% of the preadipocytes observed under a phase contrast microscope had differentiated to adipocytes by day 15. Cells were harvested at 1, 2, 8, and 15 days post treatment.
(§5) Cells were harvested and lysed in 1 ml of TRIZOL reagent (5×10^6 cells/ml; Invitrogen). […]

Data set [2] has as its system adipocytes obtained from obese donors. The experiment in a line: microarray differential expression in PPARγ agonist-treated adipocytes, obese donor. It counts as cell-based, human.
Source text: as §1, §2, §3, §4, §5

For the molecule “SEQ ID NO:29: cDNA, template 235636.1, represented by clone 3075694; integrin binding protein Del-1”, the “regulation in response to PPARγ agonist (in words)” value in data set [1] (adipocytes from normal donors) is reported as “unchanged”; in data set [2] (adipocytes from obese donors), “downregulated”.

B1: 5425777 (nucleic acid, listed as Homo sapiens)
DNA: CCCAGACACAAGTCTTCACTCCTTCCTGCGAGCCCTGAGGAAGCCTTCTTTCCCCAGACATGGCCAACAAGGGTCCTTCCTATGGCATGAGCCGCGAAGTGCAGTCCAAAATCGAGAAGAAGTATGACGAGGAGCTGGAGGAGCGGCTGGTGGAGTGGATCATAGTGCAGTGTGGCCCTGATGTGGGCCGCCCAGACCGTGGGCGCTTGGGCTTCCAGGTCTGGCTGAAGAATGGCGTGATTCTGAGCAAGCTGGTGAACAGCCTGTACCCTGATGGCTCCAAGCCGGTGAAGGTGCCCGAGAACCCACCCTCCATGGTCTTCAAGCAGATGGAGCAGGTGGCTCAGTTCCTGAAGGCGGCTGAGGACTATGGGGTCATCAAGACTGACATGTTCCAGACTGTTGACCTCTTTGAAGGCAAAGACATGGCAGCAGTGCAGAGGACCCTGATGGCTTTGGGCAGCTTGGCAGTGACCAAGAATGATGGGCACTACCGTGGAGATCCCAACTGGTTTATGAAGAAAGCGCAGGAGCATAAGAGGGAATTCACAGAGAGCCAGCTGCAGGAGGGAAAGCATGTCATTGGCCTTCAGATGGGCAGCAACAGAGGGGCCTCCCAGGCCGGCATGACAGGCTACGGACGACCTCGGCAGATCATCAGTTAGAGCGGAGAGGGCTAGCCCTGAGCCCGGCCCTCCCCCAGCTCCTTGGCTGCAGCCATCCCGCTTAGCCTGCCTCACCCACACCCGTGTGGTACCTTCAGCCCTGGCCAAGCTTTGAGGCTCTGTCACTGAGCAATGGTAACTGCACCTGGGCAGCTCCTCCCTGTGCCCCCAGCCTCAGCCCAACTTCTTACCCGAAAGCATCACTGCCTTGGGCCCCTCCCTCCCGGCTGCCCCCATCACCTCTACTGTCTCCTCCCTGGGCTAAGCAGGGGAGAAGCGGGCTGGGGGTAGCCTGGATGTGGGCCAAGTCCACTGTCCTCCTTGGCGGCAAAAGCCCATTGAAGAAGAACCAGCCCAGCCTGCCCCCTATCTTGTCCTGGAATATTTTTGGGGTTGGAACTCAAAAAAAAAAAAGGGGGGGCCCGCGCGTTTATTGTGCCTTCTTCAGACCCCGGGAATTAATTCCCGACCGGATACCTTGGCAGCTATATTGAATCTTGCAACCGTTTAACTTACCATTTTTTGCCTCAGCCCGGTGTTTCTGGCTTGTTTGGGAAGCCGGTTGGTCCTCTTTGGTGTTCCGTTCCACGCGAAAAGGTTTAGACAGACTTCCGGAACACTTCCGGGTTCCCCAGACACCAGCTTCTTTGTTAGGGTCCCCACCGGTCATTGTCGCCCGGATCGCTTGGTCCACCGGCGCGGTTAACGTTTTTTCAGCCGGGCGATGTCA
modifications: Incyte ID No 5425777CA2
As to B1, the “differential expression, Normal 1 d” value in data set [1] (normal-donor adipocytes treated with PPARγ agonist (1 μM rosiglitazone, 0.2 mM IBMX, 100 nM insulin), 1 day, relative to untreated time-matched controls, negative = downregulation) is −2.16 log base 2. The “differential expression, Normal 2 d” value in data set [1] (normal-donor adipocytes treated with PPARγ agonist (1 μM rosiglitazone, 0.2 mM IBMX, 100 nM insulin), 2 days, relative to untreated time-matched controls, negative = downregulation) is reported as −3.01 log base 2. The “differential expression, Normal 8 d” value in data set [1] (normal-donor adipocytes treated with PPARγ agonist (1 μM rosiglitazone, 0.2 mM IBMX, 100 nM insulin), 8 days, relative to untreated time-matched controls, negative = downregulation) was −0.23 log base 2. Further, in data set [1] (normal-donor adipocytes treated with PPARγ agonist, averaged over 1, 2, 8 and 15 days), the “differential expression, Normal mean” value is −1.80 log base 2. In data set [2] (obese-donor adipocytes treated with PPARγ agonist (1 μM rosiglitazone, 0.2 mM IBMX, 100 nM insulin), 1 day, relative to untreated time-matched controls, negative = downregulation), the “differential expression, Obese 1 d” value was −2.55 log base 2. Further, the “differential expression, Obese 2 d” value in data set [2] (obese-donor adipocytes treated with PPARγ agonist (1 μM rosiglitazone, 0.2 mM IBMX, 100 nM insulin), 2 days, relative to untreated time-matched controls, negative = downregulation) is recorded as −3.20 log base 2. Moreover, the “differential expression, Obese 8 d” value in data set [2] (obese-donor adipocytes treated with PPARγ agonist (1 μM rosiglitazone, 0.2 mM IBMX, 100 nM insulin), 8 days, relative to untreated time-matched controls, negative = downregulation) was −2.02 log base 2. In data set [2] (obese-donor adipocytes treated with PPARγ agonist, averaged over 1, 2, 8 and 15 days), the “differential expression, Obese mean” value is recorded as −2.59 log base 2.
